In patent US9752168B2, “Compositions comprising a polypeptide having cellulolytic enhancing activity and a quinone compound and uses thereof” (priority 2010, dated 2017):

Assays:
[1] = test system: T. reesei cellulase composition; assay: Enhancement of microcrystalline cellulose cellulolysis by the T. reesei cellulase composition using combinations of compounds and various GH61 polypeptides; details: mixtures of compounds at 3 mM
[2] = test system: Trichoderma reesei cellulase composition; assay: Hydrolysis of AVICEL® (microcrystalline cellulose) by the T. reesei cellulase composition; details: no quinone compound, cellulase 4 mg protein/g cellulose, GH61 polypeptide where present 0.4 mg/g cellulose (10% w/w of cellulase)

B1: A. fumigatus GH61B polypeptide: GH61 polypeptide having cellulolytic enhancing activity (SEQ ID NO: 30), recombinantly prepared according to WO 2010/138754 (protein, listed as Aspergillus fumigatus)
chain: MTLSKITSIAGLLASASLVAGHGFVSGIVADGKYYGGYLVNQYPYMSNPPDTIAWSTTATDLGFVDGTGYQSPDIICHRDAKNGKLTATVAAGSQIEFQWTTWPESHHGPLITYLAPCNGDCATVDKTTLKFVKIAAQGLIDGSNPPGVWADDEMIANNNTATVTIPASYAPGNYVLRHEIIALHSAGNLNGAQNYPQCFNIQITGGGSAQGSGTAGTSLYKNTDPGIKFDIYSDLSGGYPIPGPALFNA
overall conversion of AVICEL®, comparison among GH61 polypeptides [1]: highest overall conversion | Percent conversion of AVICEL® ([2]; 1 day): 13.7±0.2% | Percent conversion of AVICEL® ([2]; 3 days): 29±1% | Percent conversion of AVICEL® ([2]; 7 days): 46±2%
